In patent US20040087777A1:

Key:
Assay in all cases: rNET
… analog, Residue 1 = R = molecular target: … analog, Residue 1 = R
… analog, Residue 1 = V = molecular target: … analog, Residue 1 = V
… analog, Residue 3 = K = molecular target: … analog, Residue 3 = K
… analog, Residue 1 = H = molecular target: … analog, Residue 1 = H

OD (… analog, Residue 1 = R): 0.056 OD
OD (… analog, Residue 1 = V): 0.057 OD
OD (… analog, Residue 3 = K): 0.053 OD
OD (… analog, Residue 1 = H): 0.054 OD
Substance: murine monoclonal antibody 3D6
